In paper PMC7935935, “Conservation of the glycogen metabolism pathway underlines a pivotal function of storage polysaccharides in Chlamydiae” (Communications Biology, 2021):

Assays:
GlgA–GlgB-WC = molecular target: T1, GlgA–GlgB-WC (Waddlia chondrophila, UniProt D6YUJ8); test: […]-glucosyl incorporation into glycogen; zymogram; type: cell-based; conditions: glycogen as acceptor, 30 °C; glycogen synthase domain; labelled compound
T1 construct: gene wcw_0437; natural GlgA-GlgB gene fusion, his-tagged, modified pET15b, E. coli BW25113 delta-glgA; crude extract on zymogram
T1 sequence (D6YUJ8 1-1463): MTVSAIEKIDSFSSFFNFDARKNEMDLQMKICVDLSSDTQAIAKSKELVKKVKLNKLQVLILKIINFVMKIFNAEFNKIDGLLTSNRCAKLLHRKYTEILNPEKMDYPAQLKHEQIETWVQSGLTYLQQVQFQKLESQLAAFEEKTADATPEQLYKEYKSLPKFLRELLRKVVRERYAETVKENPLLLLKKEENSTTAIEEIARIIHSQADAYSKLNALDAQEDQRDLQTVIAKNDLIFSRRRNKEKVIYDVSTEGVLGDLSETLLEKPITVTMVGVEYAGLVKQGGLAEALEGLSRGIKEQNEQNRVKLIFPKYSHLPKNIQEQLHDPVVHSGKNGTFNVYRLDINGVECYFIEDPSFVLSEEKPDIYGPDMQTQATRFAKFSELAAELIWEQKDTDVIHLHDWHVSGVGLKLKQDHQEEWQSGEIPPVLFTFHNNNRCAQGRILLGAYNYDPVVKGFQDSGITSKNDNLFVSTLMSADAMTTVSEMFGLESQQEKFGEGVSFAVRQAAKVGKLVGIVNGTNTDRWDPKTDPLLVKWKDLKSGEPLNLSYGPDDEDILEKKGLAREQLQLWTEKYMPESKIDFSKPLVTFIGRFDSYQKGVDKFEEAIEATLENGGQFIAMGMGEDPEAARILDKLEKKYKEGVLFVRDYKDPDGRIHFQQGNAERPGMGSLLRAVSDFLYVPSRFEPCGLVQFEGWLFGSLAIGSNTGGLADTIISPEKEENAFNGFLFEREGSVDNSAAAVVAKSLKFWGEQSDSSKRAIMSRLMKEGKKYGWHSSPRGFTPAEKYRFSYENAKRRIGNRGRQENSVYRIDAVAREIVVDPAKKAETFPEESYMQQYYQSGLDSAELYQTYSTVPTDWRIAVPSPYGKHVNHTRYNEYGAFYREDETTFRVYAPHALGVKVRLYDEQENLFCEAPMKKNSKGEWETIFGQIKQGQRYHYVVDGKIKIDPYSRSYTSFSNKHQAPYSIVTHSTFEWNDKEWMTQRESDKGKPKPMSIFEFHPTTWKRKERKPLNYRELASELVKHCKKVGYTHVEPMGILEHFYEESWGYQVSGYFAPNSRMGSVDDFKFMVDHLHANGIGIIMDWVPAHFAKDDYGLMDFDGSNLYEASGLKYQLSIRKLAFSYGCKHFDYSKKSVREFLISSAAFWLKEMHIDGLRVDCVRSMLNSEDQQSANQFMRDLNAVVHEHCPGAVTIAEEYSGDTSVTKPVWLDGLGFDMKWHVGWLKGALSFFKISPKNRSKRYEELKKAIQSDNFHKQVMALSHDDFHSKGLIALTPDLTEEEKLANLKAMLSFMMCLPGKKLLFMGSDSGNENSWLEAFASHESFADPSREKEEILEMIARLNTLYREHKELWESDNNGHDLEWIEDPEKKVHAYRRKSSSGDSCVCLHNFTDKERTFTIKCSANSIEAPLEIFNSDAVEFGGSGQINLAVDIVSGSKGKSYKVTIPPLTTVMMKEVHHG

GlgE-WC = molecular target: T2, GlgE-WC (Waddlia chondrophila, UniProt D6YT22); test: maltosyl transfer, FACE capillary electrophoresis and Pi release; type: biochemical; conditions: 30 °C
T2 sequence (D6YT22 1-649): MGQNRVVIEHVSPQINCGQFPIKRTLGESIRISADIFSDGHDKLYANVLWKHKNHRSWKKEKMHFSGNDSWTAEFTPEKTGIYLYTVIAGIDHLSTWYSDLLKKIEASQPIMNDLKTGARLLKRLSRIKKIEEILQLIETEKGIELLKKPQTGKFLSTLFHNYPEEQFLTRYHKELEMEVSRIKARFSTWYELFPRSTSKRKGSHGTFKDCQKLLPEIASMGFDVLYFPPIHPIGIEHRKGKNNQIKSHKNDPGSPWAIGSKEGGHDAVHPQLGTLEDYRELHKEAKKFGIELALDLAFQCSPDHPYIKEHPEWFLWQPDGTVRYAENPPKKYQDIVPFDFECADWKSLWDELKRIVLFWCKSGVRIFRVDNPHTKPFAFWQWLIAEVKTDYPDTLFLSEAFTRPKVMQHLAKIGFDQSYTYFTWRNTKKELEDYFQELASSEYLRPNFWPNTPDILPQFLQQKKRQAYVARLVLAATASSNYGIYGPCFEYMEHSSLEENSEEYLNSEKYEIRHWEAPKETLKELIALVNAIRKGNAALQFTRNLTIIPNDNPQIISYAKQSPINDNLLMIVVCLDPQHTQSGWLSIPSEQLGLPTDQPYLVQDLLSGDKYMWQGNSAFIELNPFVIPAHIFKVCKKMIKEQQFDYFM

[1] = tested on: O=P(O)(O)O[C@H]1O[C@H](CO)[C@@H](O[C@H]2O[C@H](CO)[C@@H](O)[C@H](O)[C@H]2O)[C@H](O)[C@H]1O; test: purified protein; conditions: 10 mM maltoheptaose as acceptor per Fig. 5 legend (b24 text assigns the acceptors the other way round), pH 6.8, 30 °C, positive cooperativity
[2] = tested on: OC[C@H]1O[C@H](O[C@H]2O[C@H](CO)[C@@H](O)[C@H](O)[C@H]2O)[C@H](O)[C@@H](O)[C@@H]1O; test: purified protein; conditions: TreS domain, 1 mM MnCl2, no ATP, 125 mM imidazole pH 8, 150 mM NaCl, 30 °C
[3] = molecular target: bifunctional TreS-Mak of Estrella lausannensis (trehalose synthase fused to maltokinase) (Estrella lausannensis); test: SEC; Superose 6 10/300 GL, PBS (10 mM orthophosphate, 140 mM NaCl, pH 7.4), 4 °C, 0.3 mL/min; apparent molecular weight against standard proteins
[4] = molecular target: the molecule itself; test: as above

Nc1ncnc2c1ncn2[C@@H]1O[C@H](COP(=O)(O)OP(=O)(O)O[C@H]2O[C@H](CO)[C@@H](O)[C@H](O)[C@H]2O)[C@@H](O)[C@H]1O [ADP-glc, ADP-glucose]
14C-glucosyl incorporation into glycogen; zymogram (GlgA–GlgB-WC): is functional but highly specific for ADP-glucose

OC[C@H]1O[C@H](O[C@H]2[C@H](O)[C@@H](O)[C@@H](O[C@H]3[C@H](O)[C@@H](O)[C@@H](O[C@H]4[C@H](O)[C@@H](O)[C@@H](O[C@H]5[C@H](O)[C@@H](O)[C@@H](O[C@H]6[C@H](O)[C@@H](O)[C@@H](O[C@H]7[C@H](O)[C@@H](O)C(O)O[C@@H]7CO)O[C@@H]6CO)O[C@@H]5CO)O[C@@H]4CO)O[C@@H]3CO)O[C@@H]2CO)[C@H](O)[C@@H](O)[C@@H]1O (stereo partly shown) [DP7, maltoheptaose]
maltosyl transfer, FACE capillary electrophoresis and Pi release (GlgE-WC; acceptor with 1.6 mM M1P, also disproportionated without M1P): GlgE activities harbor an α-1,4-glucanotransferase activity exclusively with glucans composed of six or seven

O=P(O)(O)O[C@H]1O[C@H](CO)[C@@H](O[C@H]2O[C@H](CO)[C@@H](O)[C@H](O)[C@H]2O)[C@H](O)[C@H]1O [M1P, maltose-1-phosphate]
maltosyl transfer, FACE capillary electrophoresis and Pi release (GlgE-WC; 5 mM malto-oligosaccharide acceptors, 1.6 mM M1P): both GlgE activities enable the transfer the maltosyl moiety of M1P onto the glucan primer

GlgE-EL (Estrella lausannensis)
K0.5 [1]: 0.33 ± 0.02 mM

TreS-Mak of Estrella lausannensis (Estrella lausannensis)
Km [2]: 42.3 ± 2.7 mM

bifunctional TreS-Mak of Estrella lausannensis (trehalose synthase fused to maltokinase) (enzyme)
stoichiometry N [3]: 2

B1: GlgE of Estrella lausannensis (maltosyl-1-phosphate transferase; α-maltose-1-phosphate: 1,4-α-D-glucan 4-α-D-maltosyltransferase) (enzyme, UniProt A0A0H5DRC6 1-675, looked up)
chain: MSVSAAEKRQLLTQVKASGSMYTNTLHSIVIQNISPKPEPFGPAKRVLLEQVEVEADIFTDPHTKLEADLIVKAPGLRKTTRIPFHPLVNDRFKAVFVPDTPGTYSFFVEAWVNPAALWQEDLRKKQEARLDLTVDLQIGAALLVEVADLLPPEESVKLLQIAKKLREQKGAEAVAFDPEIARLGRLARPKSRQGVCSQEQEVFVTRKKALFSTWYELFPRSCSGTMRHGTFNDVVAKLPRISRMGFDVLYLPPIHPIGKTKRKGKNNALTALPDDPGSPWAVGSHEGGHDAIQRELGTLADFERLVKEAESLGIEIALDIALQCSPDHPYLKEHPEWFLKRPDGTYQYAENPPKKYEDIIPFHFTEDNKDTLFREILRIFLFWMKRGVRIFRVDNPHTKPFALWEYVIGEVRKVDSGVIFLAEAFTRPKIMHHLARIGFDQSYTYFTWRNTKWELTEYLTELTKTEARNYLRPNFFVNTPDILPESLQWGGRAAFLTRLILAATLSSSYGIYGPAFEQMLSEAVPGKEDYIDSEKYEIKPWDFEKKGTISETIEIVNRIRKENPALQATGNLEFYATDNDYLLAYGKQGPQGESLLIVVNLDHYHTQSGYVTLPLMHLGIQEKEPYLVDDLLSGERYIWEGERNYIQLSPHLVPAHIFRIRPKMLRENNFDYFI
notes: GlgE (maltosyl-1-phosphate transferase) of Estrella lausannensis, glgE gene amplified from genomic DNA; monomer of 75-76 kD; Cloned in pET15b; also called GlgE-EL; source: E. coli Rosetta (DE3)
stoichiometry N [4]: 2
